Data as given in the supplement of paper PMC9170038.

System: MS2 coat protein
Test: apparent KD of MS2 coat protein; designed switch direction (-1 OFF switch, 1 ON switch): -1; higher = weaker reporter binding
In short: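 Apparent KD, taken as the median over clusters for each design, was obtained by curve-fitting normalised cluster fluorescence. Designed RNA switches had been transcribed on Illumina chips by stalled E. coli RNA polymerase and titrated with SNAP-549-labelled MS2 coat protein, doubling from 0.7 or 1.5 nM to 3 µM.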

[1] = input ligand: microRNA oligo, concentration not stated
[2] = Eterna round: R95, input ligand: FMN 200 uM
[3] = Eterna round: R95, input ligand: microRNA oligo, concentration not stated
[4] = Eterna round: R95, input ligand: none

Row | Sequence | apparent KD of MS2 coat protein (input ligand: FMN 200 uM) | apparent KD of MS2 coat protein [1] | apparent KD of MS2 coat protein (input ligand: none) | apparent KD of MS2 coat protein [2] | apparent KD of MS2 coat protein [3] | apparent KD of MS2 coat protein [4]
1 | AGAAAUUCAAGAGGAUAUCACAUGAGGAUCACCCAUGUAUAGCGCGCUACGCUAGUCCUCGUAUUUGAGAAGGUUUGAUAAAAG [Mat - Exclusion NG 2 - Mod of JL - D77] (Eterna round: R96, puzzle: Exclusion NG 2) | 14.3 nM | 14.3 nM | 15.7 nM |  |  | 
2 | UCCACACAUGAGGAUCACCCAUGUGAGGAUAUCAUGCUUCGUAGUAAACUACGAAGUGUGAGAAGGCACAUGGC [Omei Ex1 D13] (Eterna round: R97, puzzle: Exclusion 1) | 94.7 nM |  | 24.9 nM |  |  | 
3 | AAGACUCGCAAUAAGAACAAGCACUCCGAACUAUAAGUAACAUGAGGAUCACCCAUGUCAAGGGUGCCAAAGUCAAA [JR_Sensorv2_tov2_Sub302] (Eterna round: R96, puzzle: Sensor v2, turn-off variant 2) | 15.4 nM | 16 nM | 18.6 nM |  |  | 
4 | UAGUAGCAAGGAUAUACAGAGGAGAGGAAAGCAAGAGGAGGACAUGAGGAUCACCCAUGUAGAAGGUGCAGAGA [JR_Exclu2_Sub020] (puzzle: Exclusion 2) |  |  |  | 74.6 nM | 73.9 nM | 66.6 nM
5 | AUGGACGCAGGAUAUACAUGAGGAUCACCCAUGUUAGGGUUAAGAGAAGGAAGGGAGAGUAGAAGGGCGAGAGU [JR_Exclu3_Sub0100] (puzzle: Exclusion 3) |  |  |  |  | 110 nM | 
6 | UCCUUAGCGGUCAGGAUAUACACCCGUUUCUCCUUGUAGAAGGGACAUGAGGAUCACCCAUGUACAGUACAUCU [alecazam64] (Eterna round: R97, puzzle: Brourd's mod of Exclusion 4) | 18.6 nM |  | 17.6 nM |  |  | 
7 | UAUUUGCAAGCGAGAUCCCACAUGAGGAUCACCCAUGUUCUUUGAAAGUACAGAAUUACUGUACAAGCUCGUCUUAU [Winner reversed engineered 31] (Eterna round: R97, puzzle: Sensor, turn-off variant 1) | 62.6 nM |  | 73.4 nM |  |  | 
8 | UAUUAGCAAGCGAGAUCCCACAUGAGGAUCACCCAUGUGCUCGUCUUAUAAAAGACUGUGACGAGAGUCACGGUCAC [Mat - Sensor, turn-off var - Eli Mod - D23] (Eterna round: R97, puzzle: Sensor, turn-off variant 1) | 13.7 nM |  | 12 nM |  |  | 
9 | CGUACUAACACGAAAGUGUUAGUACAAUAAGCUUGUGAAACAUGAGGAUCACCCAUGUCCUCAUAAGCUCGUCUUAG [salish99_TOv2_r3_008] (puzzle: Sensor v3, turn-off variant 2) |  |  |  | 17.1 nM | 388 nM | 14.5 nM
10 | AACGAUACGCUCAUAAGAACAUGAGGAUCACCCAUGUGUGGUGAGGAUAUCCACCCAGAGGGAAAGGAGAAGGUACCAGUGGAC [Orsoenbere] (Eterna round: R96, puzzle: Exclusion NG 3) | 222 nM | 143 nM | 303 nM |  |  | 
11 | CUGCUGAAGCUUUGCUUUAGUCGUACAUGAGGAUCACCCAUGUAGGAUAUGGUAGGCUUUGCUUACUAGAAGGAUAGAGUGAUC [salish99_ExNG3_r04_604] (Eterna round: R96, puzzle: Exclusion NG 3) | 72 nM | 82.4 nM | 61.9 nM |  |  | 
12 | UAGAUACAUGAGGAUCACCCAUGUGAGGAUAUGAGAAUGAAAUGAAAUGAAUGAAGAAUCAGAAGGCACAAAGG [JL-ex1-4.31 salish99 mod] (Eterna round: R97, puzzle: Exclusion 1) | 238 nM |  | 54 nM |  |  | 
13 | CGAUAUUAUGUCAGGAUAUACAUUGCGAAAGCAAUGUAGAAGGGACAUGAGGAUCACCCAUGUCCUAACUAUCG [Omei A 2] (puzzle: Brourd's mod of Exclusion 4) |  |  |  |  | 12.9 nM | 
14 | CCAUAUUCGAAGGAUAUGCAAUUGGAUAGAUUCGCAGAAGGUCGAACAUGAGGAUCACCCAUGUCCCUGGUGAA [Eternabot (L2) Solution 89] (Eterna round: R97, puzzle: Exclusion 6) | 903 nM |  | 133 nM |  |  | 
15 | GGACAUUCGGUAAGGAUAUUGACCCAACCUAGGAUCAAGAAGGUACAUGAGGAUCACCCAUGUCAGAUCCGUCA [Eternabot (Original) Solution 34] (Eterna round: R97, puzzle: Brourd's mod of Exclusion 4) | 27.4 nM |  | 16 nM |  |  | 
16 | GGGUAGUGAGGAUAUCGUUGUUAGGAGGAGUAGGUAGGAGGCGAGAAGGCACAUGAGGAUCACCCAUGUAUGAA [JR_Exclu4_Sub066] (Eterna round: R96, puzzle: Exclusion 4) | 34.9 nM | 26.2 nM | 32 nM |  |  | 
17 | AUCAGCUCGUGAGGAUAUACAUGAUAGAUCGAUUAAUUAAUUAAUUUAACAUGAGGAUCACCCAUGUAGAAGGUACGAGCUGAU [ENG2/1-C3] (Eterna round: R96, puzzle: Exclusion NG 2) |  | 39.6 nM |  |  |  | 
18 | UUUAAUUUUUUUUUUUUACAAGCUUUUUGCUCGUCUUAUACAUGAGGAUCACCCAUGUAGGUGAGGAGUAAAUUAUC [JMF 62] (puzzle: Sensor v3, turn-off variant 2) |  |  |  | 15.5 nM | 111 nM | 14.8 nM
19 | CUUCUCAAAGGAUAUCACGGUAAUAACAUGAGGAUCACCCAUGUGCAAUUCGUGUCCCUGUGAGAAGGUUGAGAAG [Remaor] (Eterna round: R96, puzzle: Exclusion 5) | 19.5 nM | 11.1 nM | 13.2 nM |  |  | 
20 | GUUCGACAUGAGGAUCACCCAUGUGAGGAUAUACGAUUAGCUGCUAGGUAGUUAGUAUGUAGAAGGUGCAUGAA [EX1 #73] (Eterna round: R97, puzzle: Exclusion 1) | 55.2 nM |  | 41.7 nM |  |  | 
21 | UGAUCUAGCGGAGGAUAUACAUGAGGAUCACCCAUGUAGAUAACAUGACCGUAGUCGUGUAUCGUGUAGAAGGCCGCUAGAUCU [JL ENG2 3.67] (Eterna round: R96, puzzle: Exclusion NG 2) | 35 nM | 9.25 nM | 12.6 nM |  |  | 
22 | CGUACAAGCUUACUAUAGGACAUGAGGAUCACCCAUGUAAUUGACGUUGCAUACAAUCCGUGGAUCCCGGCUGCUCG [Eternabot (L1) Solution 15] (Eterna round: R97, puzzle: Sensor, turn-off variant 1) | 43 nM |  | 51.6 nM |  |  | 
